Laboratory results reported in article PMC2172085.

Molecular target: YFP-hDcp2 (human), Q8IU60
Test: FRET or BRET
Conditions: remark: other sources report otherwise

B1: CFP-hDcp1a, Q9NPI6 1-582 (natural protein)
chain: MEALSRAGQEMSLAALKQHDPYITSIADLTGQVALYTFCPKANQWEKTDIEGTLFVYRRSASPYHGFTIVNRLNMHNLVEPVNKDLEFQLHEPFLLYRNASLSIYSIWFYDKNDCHRIAKLMADVVEEETRRSQQAARDKQSPSQANGCSDHRPIDILEMLSRAKDEYERNQMGDSNISSPGLQPSTQLSNLGSTETLEEMPSGSQDKSAPSGHKHLTVEELFGTSLPKEQPAVVGLDSEEMERLPGDASQKEPNSFLPFPFEQLGGAPQSETLGVPSAAHHSVQPEITTPVLITPASITQSNEKHAPTYTIPLSPVLSPTLPAEAPTAQVPPSLPRNSTMMQAVKTTPRQRSPLLNQPVPELSHASLIANQSPFRAPLNVTNTAGTSLPSVDLLQKLRLTPQHDQIQTQPLGKGAMVASFSPAAGQLATPESFIEPPSKTAAARVAASASLSNMVLAPLQSMQQNQDPEVFVQPKVLSSAIPVAGAPLVTATTTAVSSVLLAPSVFQQTVTRSSDLERKASSPSPLTIGTPESQRKPSIILSKSQLQDTLIHLIKNDSSFLSTLHEVYLQVLTKNKDNHNL
apparent FRET efficiency (one experiment, foci in the bleached region): 17%
average apparent FRET efficiency: 15%
